Paper doi:10.1101/2023.04.03.535447

Key:
[1] = biological target: ACE2 receptor (UniProt Q9BYF1); assay: ELISA; competitive ELISA of ACE2 binding; DCFHP 100% adsorbed to Alhydrogel (no phosphate), time zero against storage at 4 °C for 3-21 days (mean 10 days); read-out is the native antigen concentration against a reference, target 50 mcg/mL
[2] = biological target: ACE2 receptor (UniProt Q9BYF1); assay: ELISA; competitive ELISA of ACE2 binding; Alhydrogel-adsorbed DCFHP incubated overnight at 4, 40 or 50 °C, compared with a reference sample adsorbed on the day of the assay

UniProt Q9BYF1, sequence (Q9BYF1 18-805): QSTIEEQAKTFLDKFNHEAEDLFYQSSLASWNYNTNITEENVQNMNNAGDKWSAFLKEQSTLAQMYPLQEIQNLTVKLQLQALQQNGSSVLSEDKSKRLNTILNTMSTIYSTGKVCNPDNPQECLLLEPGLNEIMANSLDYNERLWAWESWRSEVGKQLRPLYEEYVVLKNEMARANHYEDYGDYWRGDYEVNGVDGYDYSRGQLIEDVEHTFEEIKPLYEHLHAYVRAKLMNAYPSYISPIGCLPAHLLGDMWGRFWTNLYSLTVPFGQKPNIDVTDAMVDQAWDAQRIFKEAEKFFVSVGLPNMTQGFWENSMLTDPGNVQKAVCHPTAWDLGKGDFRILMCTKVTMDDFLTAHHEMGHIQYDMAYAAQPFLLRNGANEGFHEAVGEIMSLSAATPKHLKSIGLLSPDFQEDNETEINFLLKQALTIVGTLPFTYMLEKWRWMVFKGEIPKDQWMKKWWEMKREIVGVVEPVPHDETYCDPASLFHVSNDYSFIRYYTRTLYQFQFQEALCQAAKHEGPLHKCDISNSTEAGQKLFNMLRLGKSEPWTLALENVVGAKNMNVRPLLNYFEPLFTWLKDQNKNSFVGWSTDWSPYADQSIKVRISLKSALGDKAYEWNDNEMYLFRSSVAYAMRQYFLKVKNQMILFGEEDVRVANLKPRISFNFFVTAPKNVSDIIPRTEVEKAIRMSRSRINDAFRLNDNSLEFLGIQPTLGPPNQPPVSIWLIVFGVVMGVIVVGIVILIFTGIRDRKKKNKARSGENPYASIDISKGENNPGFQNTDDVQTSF

Delta-C70-Ferritin-HexaPro SARS-CoV-2 spike ferritin nanoparticle produced in Expi293 cells
native antigen concentration by ACE2 competitive ELISA, freshly adsorbed (time zero) [1]: 48 µg/mL
native antigen concentration by ACE2 competitive ELISA, stored at 4°C for 3-21 days [1]: 75 µg/mL
loss of ACE2 binding after overnight incubation at 40°C (AH-adsorbed) [2]: 60%
loss of ACE2 binding after overnight incubation at 50°C (AH-adsorbed) [2]: 80%
